The record followed here is publication PMC4914107 (Nucleic Acids Research, 2016).

Read-outs that look alike come from different tables or passages of the source.

In experiment [1] the target is T1, RAD51 (purified) (UniProt Q06609 1-339).
T1 sequence (looked up): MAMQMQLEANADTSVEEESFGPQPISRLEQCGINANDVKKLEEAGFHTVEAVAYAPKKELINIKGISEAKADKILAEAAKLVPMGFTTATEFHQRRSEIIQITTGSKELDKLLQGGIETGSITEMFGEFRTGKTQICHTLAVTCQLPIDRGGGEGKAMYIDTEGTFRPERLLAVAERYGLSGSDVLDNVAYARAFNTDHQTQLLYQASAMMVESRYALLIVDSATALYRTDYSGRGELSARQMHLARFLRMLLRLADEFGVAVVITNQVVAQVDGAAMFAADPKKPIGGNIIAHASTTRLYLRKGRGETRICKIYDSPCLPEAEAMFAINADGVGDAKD
As to the kind of experiment: pull-down.

Experiment [2] has as its target T1, RAD51 (purified). The experiment is described as follows: pull-down. This is another data set of the same source.

B1: 2XMBP-BRC1–4-DBD (domain or fragment, human)
chain: WAGLLGPISNHSFGGSFRTASNKEIKLSEHNIKKSKMFFKDIEEQYPTSLACVEIVNTLALDNQKKLSKPQSINTVSAHLQSSVVVSDCKNSHITPQMLFSKQDFNSNHNLTPSQKAEITELSTILEESGSQFEFTQFRKPSYILQKSTFEVPENQMTILKTTSEECRDADLHVIMNAPSIGQVDSSKQFEGTVEIKRKFAGLLKNDCNKSASGYLTDENEVGFRGFYSAHGTKLNVSTEALQKAVKLFSDIENISEETSAEVHPISLSSSKCHDSVVSMFKIENHNDKTVSEKNNKCQLILQNNIEMTTGTFVEEITENYKRNTENEDNKYTAASRNSHNLEFDGSDSSKNDTVCIHKDETDLLFTDQHNICLKLSGQFMKEGNTQIKEDLSDLTFLEVAKAQEACHGNTSNKEQLTATKTEQNIKDFETSDTFFQTASGKNISVAKESFNKIVNFFDQKPEELHNFSLNSELHSDIRKNKMDILSYEETDIVKHKILKESVPVGTGNQLVTFQGQPERDEKIKEPTLLGFHTASGKKVKIAKESLDKVKNLFDEKEQGTSEITSFSHQWAKTLKYREACKDLELACETIEITAAPGGGSPYLSQFQQDKQQLVLGTKVSLVENIHVLGKEQASPKNVKMEIGKTETFSDVPVKTNIEVCSTYSKDSENYFETEAVEIAKAFMEDDELTDSKLPSHATHSLFTCPENEEMVLSNSRIGKRRGEPLILVGEPSIKRNLLNEFDRIIENQEKSLKASKSTPDGTIKDRRLFMHHVSLEPITCVPFRTTKERQEIQNPNFTAPGQEFLSKSHLYEHLTLEKSSSNLAVSGHPFYQVSATRNEKMRHLITTGRPTKVFVPPFKTKSHFHRVEQCVRNINLEENRQKQNIDGHGSDDSKNKINDNEIHQFNKNNSNQAVAVTFTKCEEEPLDLITSLQNARDIQDMRIKKKQRQRVFPQPGSLYLAKTSTLPRISLKAAVGGQVPSACSHKQLYTYGVSKHCIKINSKNAESFQFHTEDYFGKESLWTGKGIQLADGGWLIPSNDGKAGKEEFYRALCDTPGVDPKLISRIWVYNHYRWIIWKLAAMECAFPKEFANRCLSPERVLLQLKYRYDTEIDRSRRSAIKKIMERDDTAAKTLVLCVSDIISLSANISETSSNKTSSADTQKVAIIELTDGWYAVKAQLDPPLLAVLKNGRLTVGQKIILHGAELVGSPDACTPLEAPESLMLKISANSTRPARWYTKLGFFPDPRPFPLPLSSLFSDGGNVGCVDVIIQRAYPIQWMEKTSSGLYIFRNEREEEKEAAKYVEAQQKRLEALFTKIQEEFEEHEENTTKPYLPSRALTRQQVRALQDGAELYEAVKNAADPAYLEGYFSEEQLRALNNHRQMLNDKKQAQIQLEIRKAMESAEQKEQGLSRDVTTVWKLRIVSYSKKEKDSVILSIWRPSSDLYSLLTEGKRYRIYHLATSKSKSKSERANIQLAATKKTQYQQLPVSDEILFQIYQPREPLHFSKFLDPDFQPSCSEVDLIGFVVSVVKKTGLAPFVYLSDECYNLLAIKFWIDLNEDIIKPHMLIAASNLQWRPESKSGLLTLFAGDFSVFSASPKEGHFQETFNKMKNTVENIDILCNEAENKLMHILHANDPKWSTPTKDCTSGPYTAQIIPGTGNKLLMSSPNCEIYYQSPLSLCMAKRKSVSTPVSAQMTSKSCKGEKEIDDQKNCKKRRALDFLSRLPLPPPVSPICTFVSPAAQKAFQPPRSCGTKYETPIKKKELNSPQMTPFKKFNEISLLESNSIADEELALINTQALLSGSTGEKQFISVSESTRTAPTSSEDYLRLKRRCTTSLIKEQESSQASTEECEKNKQDTITTKKYI
On to B1, for which, in experiment [1], the binding result was “binds”.

B2: 2XMBP-BRC4-DBD (domain or fragment, human)
chain: PVGTGNQLVTFQGQPERDEKIKEPTLLGFHTASGKKVKIAKESLDKVKNLFDEKEQGTSEITSFSHQWAKTLKYREACKDLELACETIEITAAPGGGSPYLSQFQQDKQQLVLGTKVSLVENIHVLGKEQASPKNVKMEIGKTETFSDVPVKTNIEVCSTYSKDSENYFETEAVEIAKAFMEDDELTDSKLPSHATHSLFTCPENEEMVLSNSRIGKRRGEPLILVGEPSIKRNLLNEFDRIIENQEKSLKASKSTPDGTIKDRRLFMHHVSLEPITCVPFRTTKERQEIQNPNFTAPGQEFLSKSHLYEHLTLEKSSSNLAVSGHPFYQVSATRNEKMRHLITTGRPTKVFVPPFKTKSHFHRVEQCVRNINLEENRQKQNIDGHGSDDSKNKINDNEIHQFNKNNSNQAVAVTFTKCEEEPLDLITSLQNARDIQDMRIKKKQRQRVFPQPGSLYLAKTSTLPRISLKAAVGGQVPSACSHKQLYTYGVSKHCIKINSKNAESFQFHTEDYFGKESLWTGKGIQLADGGWLIPSNDGKAGKEEFYRALCDTPGVDPKLISRIWVYNHYRWIIWKLAAMECAFPKEFANRCLSPERVLLQLKYRYDTEIDRSRRSAIKKIMERDDTAAKTLVLCVSDIISLSANISETSSNKTSSADTQKVAIIELTDGWYAVKAQLDPPLLAVLKNGRLTVGQKIILHGAELVGSPDACTPLEAPESLMLKISANSTRPARWYTKLGFFPDPRPFPLPLSSLFSDGGNVGCVDVIIQRAYPIQWMEKTSSGLYIFRNEREEEKEAAKYVEAQQKRLEALFTKIQEEFEEHEENTTKPYLPSRALTRQQVRALQDGAELYEAVKNAADPAYLEGYFSEEQLRALNNHRQMLNDKKQAQIQLEIRKAMESAEQKEQGLSRDVTTVWKLRIVSYSKKEKDSVILSIWRPSSDLYSLLTEGKRYRIYHLATSKSKSKSERANIQLAATKKTQYQQLPVSDEILFQIYQPREPLHFSKFLDPDFQPSCSEVDLIGFVVSVVKKTGLAPFVYLSDECYNLLAIKFWIDLNEDIIKPHMLIAASNLQWRPESKSGLLTLFAGDFSVFSASPKEGHFQETFNKMKNTVENIDILCNEAENKLMHILHANDPKWSTPTKDCTSGPYTAQIIPGTGNKLLMSSPNCEIYYQSPLSLCMAKRKSVSTPVSAQMTSKSCKGEKEIDDQKNCKKRRALDFLSRLPLPPPVSPICTFVSPAAQKAFQPPRSCGTKYETPIKKKELNSPQMTPFKKFNEISLLESNSIADEELALINTQALLSGSTGEKQFISVSESTRTAPTSSEDYLRLKRRCTTSLIKEQESSQASTEECEKNKQDTITTKKYI
B2: in experiment [2], the binding result is recorded as “binds”.
